# Measurements as given in US20090297689A1.
# How the values were obtained:
# casein hydrolysate = experiment: cell-based or functional assay
# sodium caseinate = experiment: cell-based or functional assay
substance,measurement,setting,value
"peptidyl arginine deiminase (PAD) of Fusarium graminearum CBS166.57, over-expressed in Aspergillus niger and purified (enzyme)","arginine (amino acid analysis, 5 microliter PAD, 3 hours)",casein hydrolysate,97.2%
same,"arginine (amino acid analysis, 50 microliter PAD, 3 hours)",casein hydrolysate,86.1%
same,"arginine (amino acid analysis, 500 microliter PAD, 3 hours)",casein hydrolysate,60.4%
same,"citrulline (amino acid analysis, 5 microliter PAD, 3 hours)",casein hydrolysate,0.9%
same,"citrulline (amino acid analysis, 50 microliter PAD, 3 hours)",casein hydrolysate,5%
same,"citrulline (amino acid analysis, 500 microliter PAD, 3 hours)",casein hydrolysate,15.1%
same,"ornithine (amino acid analysis, 5 microliter PAD, 3 hours)",casein hydrolysate,1.9%
same,"ornithine (amino acid analysis, 50 microliter PAD, 3 hours)",casein hydrolysate,8.9%
same,"ornithine (amino acid analysis, 500 microliter PAD, 3 hours)",casein hydrolysate,24.5%
same,"arginine (amino acid analysis, 5 microliter PAD, 3 hours)",sodium caseinate,97.8%
same,"arginine (amino acid analysis, 50 microliter PAD, 3 hours)",sodium caseinate,86.5%
same,"arginine (amino acid analysis, 500 microliter PAD, 3 hours)",sodium caseinate,70.2%
same,"citrulline (amino acid analysis, 5 microliter PAD, 3 hours)",sodium caseinate,0.8%
same,"citrulline (amino acid analysis, 50 microliter PAD, 3 hours)",sodium caseinate,4.7%
same,"citrulline (amino acid analysis, 500 microliter PAD, 3 hours)",sodium caseinate,10.5%
same,"ornithine (amino acid analysis, 5 microliter PAD, 3 hours)",sodium caseinate,1.3%
same,"ornithine (amino acid analysis, 50 microliter PAD, 3 hours)",sodium caseinate,8.8%
same,"ornithine (amino acid analysis, 500 microliter PAD, 3 hours)",sodium caseinate,19.3%
